Source: the RNAGym collection of RNA variant scans (doi:10.7554/elife.80360)

B1: CPEB3 Ribozyme (parent)
chain: GGGGGCCACAGCAGAAGCGUUCACGUCGCGGCCCCUGUCAGAUUCUGGUGAAUCUGCGAAUUCUGCUGU

Variants of: B1
Assay: self-cleavage, relative activity (ratio to wild type); higher = more cleavage; co-transcriptional

Row | Variant | self-cleavage
1 | GGGGGCCACAGCAGAAGCGUGCACGUCGCGGCCCCUGUCAGAUUCUGGUGAAUCUGCGAAUUCUGAUGU [U21G C66A] | 0.263
2 | GGGGGCCACAGCAGAAGCGUGCACGUCGCGGCCACUGUCAGAUUCUGGUGAAUCUGCGAAUUCUGCUGU [U21G C34A] | 0.218
3 | GGGGGCCACAGCAGAAGCGUCCACGUCGCGGCCCCUGUCAGAUUCUGGUGAAUCUGCGAAUUCUGCUGC [U21C U69C] | 1.05
4 | GGGGGCCACAGCAGAAGCGUGCACGUCGCGGCCCCUGUCAGAUUCUGGUUAAUCUGCGAAUUCUGCUGU [U21G G50U] | 0.588
5 | GGGGGCCACAGCAGAAGCGUGCACGUCGCGGCACCUGUCAGAUUCUGGUGAAUCUGCGAAUUCUGCUGU [U21G C33A] | 0.163
6 | GGGGGCCACAGCAGAAGCGUGCACGUCGCGGCUCCUGUCAGAUUCUGGUGAAUCUGCGAAUUCUGCUGU [U21G C33U] | 0.575
7 | GGGGGCCACAGCAGAAGCGUGCACGUCGCGGCGCCUGUCAGAUUCUGGUGAAUCUGCGAAUUCUGCUGU [U21G C33G] | 0.215
8 | GGGGGCCACAGCAGAAGCGUGCACGUGGCGGCCCCUGUCAGAUUCUGGUGAAUCUGCGAAUUCUGCUGU [U21G C27G] | 0.227
9 | GGGGGCCACAGCAGAAGCGUGCACGUCGCGGCCCCUCUCAGAUUCUGGUGAAUCUGCGAAUUCUGCUGU [U21G G37C] | 0.18
10 | GGGGGCCACAGCAGAAGCGUGCACGUCGCGGCCCCUAUCAGAUUCUGGUGAAUCUGCGAAUUCUGCUGU [U21G G37A] | 0.193
11 | GGGGGCCACAGCAGAAGCGUGCACGUCGCGGCCCCUUUCAGAUUCUGGUGAAUCUGCGAAUUCUGCUGU [U21G G37U] | 0.196
12 | GGGGGCCACAGCAGAAGCGUGGACGUCGCGGCCCCUGUCAGAUUCUGGUGAAUCUGCGAAUUCUGCUGU [U21G C22G] | 0.227
13 | GGGGGCCACAGCAGAAGCGUGUACGUCGCGGCCCCUGUCAGAUUCUGGUGAAUCUGCGAAUUCUGCUGU [U21G C22U] | 0.181
14 | GGGGGCCACAGCAGAAGCGUGAACGUCGCGGCCCCUGUCAGAUUCUGGUGAAUCUGCGAAUUCUGCUGU [U21G C22A] | 0.2
15 | GGGGGCCACAGCAGAAGCGUGCACGUCGCGGCCCCUGUCAGAUUCUGCUGAAUCUGCGAAUUCUGCUGU [U21G G48C] | 0.648
16 | GGGGGCCACAGCAGAAGCGUGCACGUCGCGGCCCCUGUCAGAUUCUGAUGAAUCUGCGAAUUCUGCUGU [U21G G48A] | 0.674
17 | GGGGGCCACAGCAGAAGCGUGCACGUCGCGGCCCCUGUCAGAUUCUGUUGAAUCUGCGAAUUCUGCUGU [U21G G48U] | 0.594
18 | GGGGGCCACAGCAGAAGCGUGCACGUCGCGGCCCCUGUCAGAUUCUGGUGAAUCUGCGAAUUAUGCUGU [U21G C63A] | 0.245
19 | GGGGGCCACAGCAGAAGCGUGCACGUCGCGGCCCCUGUCAGAUUCUGGUGAAUCUGCCAAUUCUGCUGU [U21G G58C] | 0.519
20 | GGGGGCCACAGCAGAAGCGUCCACGUCGCGGCCCCUGUCAGAUUCUGGAGAAUCUGCGAAUUCUGCUGU [U21C U49A] | 0.847

Row | Variant | self-cleavage
21 | GGGGGCCACAGCAGAAGCGUCCACGUCGCGGCCCCUGUCAGAUUCUGGGGAAUCUGCGAAUUCUGCUGU [U21C U49G] | 0.927
22 | GGGGGCCACAGCAGAAGCGUCCACGUCGCGGCCCCUGUCAGAUUCUGGCGAAUCUGCGAAUUCUGCUGU [U21C U49C] | 0.868
23 | GGGGGCCACAGCAGAAGCGUGCACGUCGCGGCCCCUGUCAGAUUCUGGUGAAUCUGCGAAUUCUGCUGU [U21G] | 0.644
24 | GGGGGCCACAGCAGAAGCGUGCACGUCGCGGCCCCUGUCAGAUUCUGGUGAAUCUUCGAAUUCUGCUGU [U21G G56U] | 0.611
25 | GGGGGCCACAGCAGAAGCGUCCACGUCGCGGCCCCUGUCAGAUUCGGGUGAAUCUGCGAAUUCUGCUGU [U21C U46G] | 0.991
26 | GGGGGCCACAGCAGAAGCGUCCACGUCGCGGCCCCUGUCAGAUUCAGGUGAAUCUGCGAAUUCUGCUGU [U21C U46A] | 0.88
27 | GGGGGCCACAGCAGAAGCGUGCACGUCGCGGCCCCUGUCAGAUUCUGGUGAAUCUGCGAUUUCUGCUGU [U21G A60U] | 0.295
28 | GGGGGCCACAGCAGAAGCGUGCACGUCGCGGCCCCUGUCAGAUUCUGGUGAAUCUGCGAGUUCUGCUGU [U21G A60G] | 0.251
29 | GGGGGCCACAGCAGAAGCGUGCACGUCGCGGCCCCUGUCGGAUUCUGGUGAAUCUGCGAAUUCUGCUGU [U21G A40G] | 0.463
30 | GGGGGCCACAGCAGAAGCGUGCACGUCGCGGCCCCUGUCUGAUUCUGGUGAAUCUGCGAAUUCUGCUGU [U21G A40U] | 0.317
31 | GGGGGCCACAGCAGAAGCGUGCACGUCGCGGCCCCUGUCAGAUUCUGGUGAAUCUGCGCAUUCUGCUGU [U21G A59C] | 0.223
32 | GGGGGCCACAGCAGAAGCGUCCACGUCGCGGCCCCUGUCAGAUUCUGGUGAAUCCGCGAAUUCUGCUGU [U21C U55C] | 0.611
33 | GGGGGCCACAGCAGAAGCGUGCACGUCGCGGCCCCUGUCAAAUUCUGGUGAAUCUGCGAAUUCUGCUGU [U21G G41A] | 0.388
34 | GGGGGCCACAGCAGAAGCGUGCACGUCGCGGCCCCUGUCAUAUUCUGGUGAAUCUGCGAAUUCUGCUGU [U21G G41U] | 0.373
35 | GGGGGCCACAGCAGAAGCGUGCACGUCGCGGCCCCUGUCACAUUCUGGUGAAUCUGCGAAUUCUGCUGU [U21G G41C] | 0.276
36 | GGGGGCCACAGCAGAAGCGUCCACGUCGCGGCCCCUGUCAGAUUCUGGUGAACCUGCGAAUUCUGCUGU [U21C U53C] | 0.726
37 | GGGGGCCACAGCAGAAGCGUCCACGUCGCGGCCCCUGUCAGAUUCUGGUGAAACUGCGAAUUCUGCUGU [U21C U53A] | 0.765
38 | GGGGGCCACAGCAGAAGCGUCCACGUCGCGGCCCCUGUCAGAUUCUGGUGAAUCUGCGAAUUCUGCAGU [U21C U67A] | 0.921
39 | GGGGGCCACAGCAGAAGCGUCCACGUCGCGGCCCCUGUCAGAUUCUGGUGAAUCUGCGAAUUCUGCCGU [U21C U67C] | 0.898
